This is an account of results in US11427812B2, “Antimicrobial agents against Staphylococcus aureus” (LYSANDO AG, priority 2016, dated 2022).

As usually defined, the MIC is the lowest concentration found to suppress growth. The low end stands for a more susceptible organism, the high end for a less susceptible organism.

A value given as a limit tells only on which side of the number the result lay.

One series has as its system S. aureus Sp10. Kind of series: MIC assay over several culture cycles (resistance development). The series is classed as cell-based, Staphylococcus aureus. The source says: Becker et al. (Sci Rep. 2016 Apr. 28; 6:25063) reported construction of fusion protein L-K with reduced incidence of resistant S. aureus strain development. In an attempt to provide other improved fusion proteins against S. aureus, the inventors generated two fusion proteins, each comprising the CHAP domain of LysK endolysin, the M23 endopeptidase domain of lysostaphin; and the cell wall binding domain (CBD) of ALE-1. In addition, one of the fusion proteins did comprise the cathepsin G (77-83) peptide (SEQ ID NO:94), the other the cationic peptide KNK (SEQ ID NO:38). The resulting fusion proteins (SEQ ID NO:105 and SEQ ID NO: 107) were assayed for antibacterial activity and resistance development. For this purpose MIC (minimal inhibitory concentration) assays (see below) were carried out for several culture cycles.
MIC assay S. aureus Sp10 was grown in (Luria-Bertani) medium and diluted 1:10 in Mueller-Hinton medium. At an optical density OD600 of about 0.6, bacteria were diluted in the same medium 1:10 followed by a 1:500 dilution. Protein buffer (20 mM HEPES, 500 mM NaCl, pH 7.4) and proteins or gentamycin were pipetted into a 96 well plate, using different concentrations of proteins/gentamycin and an end volume of 20 μl. The proteins used were the fusion proteins according to SEQ ID NO:105 and SEQ ID NO: 107. 180 μl of bacterial cells or a medium (Mueller-Hinton) control were given to the 96 well plate and mixed. The plate was incubated for 18-22 hours at 37° C. and the bacterial growth was determined measuring the OD600 values of the wells. The well with the lowest concentration of protein/gentamycin showing the same OD600 value as the medium control was taken as MIC. For the next cycle, the bacterial solution from the sub-MIC well was used. The sub-MIC well is the well in which the next lower concentration to the MIC concentration was tested, i.e. the well with the highest concentration of protein/gentamycin but still OD600 above the medium control. For further cycles of the resistance assay, the bacteria from this sub-MIC well of the previous cycle were taken for the next over-night culture.

The test system of series [1] is Staphylococcus aureus DSM 346. Kind of series: Thermal stability assay (standard MIC assay after heat incubation). It is filed as cell-based. The following applies: for MIC: protein 0.3 mg/ml, DSM 346; for thermal stability: in comparison to the unmodified fusion protein. How it is done:
In addition, thermal stability was assessed for two of said mutants in comparison to the unmodified fusion protein. The thermal stability assay was carried out with the strain Staphylococcus aureus DSM 346. The proteins were diluted to a concentration of 0.3 mg/ml followed by an incubation for 20 minutes at different temperatures (see table 8 below). A standard MIC assay was carried out after this incubation time.

The mark [2] stands for this setting: cycle 1 (initial MIC), S. aureus Sp10.
Setting [3] is: cycle 1, fold change over initial MIC (cycle 1).
Where [4] appears, read: cycle 6, fold change over initial MIC (cycle 1).
[5] abbreviates: cycle 12, fold change over initial MIC (cycle 1).
Where [6] appears, read: after 20 minutes incubation at 44.6° C.
[7] abbreviates: after 20 minutes incubation at 47.1° C.
Where [8] appears, read: after 20 minutes incubation at 49.7° C.
The mark [9] stands for this setting: after 20 minutes incubation at 52.3° C.
Setting [10] is: after 20 minutes incubation at 54.9° C.
Where [11] appears, read: after 20 minutes incubation at 57.4° C.
Setting [12] is: after 20 minutes incubation at 60° C.
Where [13] appears, read: after 20 minutes incubation at RT.

Consider gentamycin [reference compound], for which the “Minimal inhibitory concentration (MIC)” value in the series with S. aureus Sp10 (setting [2]) amounted to 0.8 µg/mL; in the series on S. aureus Sp10 (cycle 6, S. aureus Sp10), 4 µg/mL; in the series on S. aureus Sp10 (cycle 12, S. aureus Sp10), 6 µg/mL. Besides, the “Fold change of MIC” value was 1 with S. aureus Sp10 (setting [3]), 5 in the series with S. aureus Sp10 (setting [4]) and 7.5 in the series with S. aureus Sp10 (setting [5]).

B1: SEQ ID NO: 105: fusion protein: CHAP domain of LysK, M23 endopeptidase domain of lysostaphin, CBD of ALE-1 and a further peptide (cathepsin G (77-83) or KNK) (protein)
chain: MAKTQAEINKRLDAYAKGTVDSPYRVKKATSYDPSFGVMEAGAIDADGYYHAQCQDLITDYVLWLTDNKVRTWGNAKDQIKQSYGTGFKIHENKPSTVPKKGWIAVFTSGSYEQWGHIGIVYDGGNTSTFTILEQNWNGYANKKPTKRVDNYYGLTHFIEIPVKAGTTVKKETAKKSATSHEHSAQWLNNYKKGYGYGPYPLGINGGMHYGVDFFMNIGTPVKAISSGKIVEAGWSNYGGGNQIGLIENDGVHRQWYMHLSKYNVKVGDYVKAGQIIGWSGSTGYSTAPHLHFQRMVNSFSNSTAQDPMPFLKSAGYGKAGGTVTPTPNPGNGYKTNKYGTLYKSESASFTANTDIITRLTGPFRSMPQSGVLRKGLTIKYDEVMKQDGHVWVGYNTNSGKRVYLPVRTWNESTGELGPLWGTIKHHHHHHLKHPQYNQR
modifications: Fusion protein comprising CHAP domain of LysK endolysin, M23 endopeptidase domain of lysostaphin, cell wall binding domain of ALE-1, His6-tag and synthetic peptide HPQYNQR
B1: the “Minimal inhibitory concentration (MIC)” value in the series with S. aureus Sp10 (setting [2]) was 4 µg/mL; in the series with S. aureus Sp10 (cycle 6, S. aureus Sp10), 4 µg/mL; in the series on S. aureus Sp10 (cycle 12, S. aureus Sp10) it was 6 µg/mL. Further, the entries for the “Fold change of MIC” value in the series with S. aureus Sp10 (setting [3]), in the series with S. aureus Sp10 (setting [4]) and with S. aureus Sp10 (setting [5]) were 1, 1 and 1.5, respectively.

B2: Clone 11: variant of SEQ ID NO: 107 with mutations K17E, H51Q (protein)
chain: MAKTQAEINKRLDAYAEGTVDSPYRVKKATSYDPSFGVMEAGAIDADGYYQAQCQDLITDYVLWLTDNKVRTWGNAKDQIKQSYGTGFKIHENKPSTVPKKGWIAVFTSGSYEQWGHIGIVYDGGNTSTFTILEQNWNGYANKKPTKRVDNYYGLTHFIEIPVKAGTTVKKETAKKSATSHEHSAQWLNNYKKGYGYGPYPLGINGGMHYGVDFFMNIGTPVKAISSGKIVEAGWSNYGGGNQIGLIENDGVHRQWYMHLSKYNVKVGDYVKAGQIIGWSGSTGYSTAPHLHFQRMVNSFSNSTAQDPMPFLKSAGYGKAGGTVTPTPNPGNGYKTNKYGTLYKSESASFTANTDIITRLTGPFRSMPQSGVLRKGLTIKYDEVMKQDGHVWVGYNTNSGKRVYLPVRTWNESTGELGPLWGTIKGSHHHHHHGGSKNK
modifications: Fusion protein comprising CHAP domain of LysK endolysin, M23 endopeptidase domain of lysostaphin, cell wall binding domain of ALE-1, His6-tag and synthetic peptide KNK
Consider B2, for which the MIC is 6 µg/mL in series [1] (setting [6]); 10 µg/mL in series [1] (setting [7]); 10 µg/mL in series [1] (setting [8]); 16 µg/mL in series [1] (setting [9]); above 30 µg/mL in series [1] (setting [10]); above 30 µg/mL in series [1] (setting [11]). Moreover, the MIC in series [1] (setting [12]) is above 30 µg/mL; in series [1] (setting [13]) it was 4 µg/mL. Also, the thermal stability entry in series [1] is given as “increased thermal stability”.

B3: Clone 15: variant of SEQ ID NO: 107 with mutations K17E, H51Q, K28N, T86A, G154S (protein)
chain: MAKTQAEINKRLDAYAEGTVDSPYRVKNATSYDPSFGVMEAGAIDADGYYQAQCQDLITDYVLWLTDNKVRTWGNAKDQIKQSYGAGFKIHENKPSTVPKKGWIAVFTSGSYEQWGHIGIVYDGGNTSTFTILEQNWNGYANKKPTKRVDNYYSLTHFIEIPVKAGTTVKKETAKKSATSHEHSAQWLNNYKKGYGYGPYPLGINGGMHYGVDFFMNIGTPVKAISSGKIVEAGWSNYGGGNQIGLIENDGVHRQWYMHLSKYNVKVGDYVKAGQIIGWSGSTGYSTAPHLHFQRMVNSFSNSTAQDPMPFLKSAGYGKAGGTVTPTPNPGNGYKTNKYGTLYKSESASFTANTDIITRLTGPFRSMPQSGVLRKGLTIKYDEVMKQDGHVWVGYNTNSGKRVYLPVRTWNESTGELGPLWGTIKGSHHHHHHGGSKNK
modifications: Fusion protein comprising CHAP domain of LysK endolysin, M23 endopeptidase domain of lysostaphin, cell wall binding domain of ALE-1, His6-tag and synthetic peptide KNK
As for B3, the MIC in series [1] (setting [6]) was determined as 4 µg/mL; in series [1] (setting [7]) it was 4 µg/mL; in series [1] (setting [8]), 4 µg/mL; in series [1] (setting [9]), 4 µg/mL; in series [1] (setting [10]), 4 µg/mL; in series [1] (setting [11]), 6 µg/mL. In addition, the MIC in series [1] (setting [12]) was found to be 8 µg/mL; in series [1] (setting [13]), 4 µg/mL. For the same molecule, in series [1], the thermal stability result was “increased thermal stability”.

B4: SEQ ID NO: 107: fusion protein: CHAP domain of LysK, M23 endopeptidase domain of lysostaphin, CBD of ALE-1 and a further peptide (cathepsin G (77-83) or KNK) (protein)
chain: MAKTQAEINKRLDAYAKGTVDSPYRVKKATSYDPSFGVMEAGAIDADGYYHAQCQDLITDYVLWLTDNKVRTWGNAKDQIKQSYGTGFKIHENKPSTVPKKGWIAVFTSGSYEQWGHIGIVYDGGNTSTFTILEQNWNGYANKKPTKRVDNYYGLTHFIEIPVKAGTTVKKETAKKSATSHEHSAQWLNNYKKGYGYGPYPLGINGGMHYGVDFFMNIGTPVKAISSGKIVEAGWSNYGGGNQIGLIENDGVHRQWYMHLSKYNVKVGDYVKAGQIIGWSGSTGYSTAPHLHFQRMVNSFSNSTAQDPMPFLKSAGYGKAGGTVTPTPNPGNGYKTNKYGTLYKSESASFTANTDIITRLTGPFRSMPQSGVLRKGLTIKYDEVMKQDGHVWVGYNTNSGKRVYLPVRTWNESTGELGPLWGTIKGSHHHHHHGGSKNK
modifications: Fusion protein comprising CHAP domain of LysK endolysin, M23 endopeptidase domain of lysostaphin, cell wall binding domain of ALE-1, His6-tag and synthetic peptide KNK
As to B4, the “Minimal inhibitory concentration (MIC)” value was 4 µg/mL in the series on S. aureus Sp10 (setting [2]); 4 µg/mL in the series on S. aureus Sp10 (cycle 6, S. aureus Sp10); 6 µg/mL with S. aureus Sp10 (cycle 12, S. aureus Sp10). For the same molecule, the “Fold change of MIC” value with S. aureus Sp10 (setting [3]) came out at 1; in the series on S. aureus Sp10 (setting [4]), 1; in the series on S. aureus Sp10 (setting [5]), 1.5. Further, the MIC in series [1] (setting [6]) was 20 µg/mL; in series [1] (setting [7]) it was 25 µg/mL; in series [1] (setting [8]), 30 µg/mL; in series [1] (setting [9]), 30 µg/mL; in series [1] (setting [10]) it was above 30 µg/mL; in series [1] (setting [11]) it was above 30 µg/mL. The MIC in series [1] (setting [12]) is above 30 µg/mL; in series [1] (setting [13]), 6 µg/mL.
